# Laboratory results published in patent US20230414780A1 (VECT HORUS, published 2023).
# Changes are numbered by the printed parent chain.
# B1: C5-siSOD1m (VHH)
# VHH: EVQLVESGGGVVQPGGSLKLSCVASGTDFSINFIRWYRQAPGKQREFVAGFTATGNTNYADSMKGRFTISRDNTKNAVYLQIDSLKPEDTAVYYCYMLDKWGQGTQVTVSS
# modifications: chain 1 pos 125: Gln of the LQR Q-tag carrying the transglutaminase-installed azido linker clicked to the 3' end of the sense strand of the chemically modified siSOD1m duplex (SEQ ID NOs 465/466, no 5'VP), written Q
# notes: Member of the group m173; siRNA without 5'VP, so not the same as m166
# B2: C5-ΔHis-siSOD1m (VHH)
# VHH: B1 VHH
# modifications: conjugated to the siSOD1m siRNA duplex through a linker; site and tag not given for this conjugate ; Conjugated at a C-terminal tag (not given) through a linker to the chemically modified siSOD1m duplex (SEQ ID NOs 465/466).
# notes: Member of the group m173; also called VHH-deltaHis-siSOD1m wherein VHH is C5; not shown: The C-terminal conjugation tag of the 'ΔHis' form, which the text never defines
# B3: C5h19-siSOD1m (VHH)
# VHH: B1 VHH with K19R, V23A, M63V, T74A, A77T, V78L, I82M, D83N, K86R
# modifications: conjugated to the siSOD1m siRNA duplex through a linker; site and tag not given for this conjugate ; VHH conjugated through a C-terminal tag and a stable click linker to the 3' end of the sense strand of the siSOD1m siRNA duplex (SEQ ID NO 465/466). The letters cannot carry this.
# notes: Member of the group m173; not shown: C-terminal tag/linker that carries the siRNA
# B4: C5h18-siSOD1m (VHH)
# VHH: B1 VHH with Q44G, R45L, M63V, T74A, A77T, V78L, I82M, D83N, K86R
# modifications: conjugated to the siSOD1m siRNA duplex through a linker; site and tag not given for this conjugate ; VHH conjugated through a C-terminal tag and a stable click linker to the 3' end of the sense strand of the siSOD1m siRNA duplex (SEQ ID NO 465/466). The letters cannot carry this.
# notes: as for B3
# B5: C5V7-siSOD1m (VHH)
# VHH: B1 VHH with L98A
# modifications: conjugated to the siSOD1m siRNA duplex through a linker; site and tag not given for this conjugate ; VHH conjugated through a C-terminal tag and a stable click linker to the 3' end of the sense strand of the siSOD1m siRNA duplex (SEQ ID NO 465/466). The letters cannot carry this.
# notes: as for B3
# B6: C5V13-siSOD1m (VHH)
# VHH: B1 VHH with T52S
# modifications: conjugated to the siSOD1m siRNA duplex through a linker; site and tag not given for this conjugate ; VHH conjugated through a C-terminal tag and a stable click linker to the 3' end of the sense strand of the siSOD1m siRNA duplex (SEQ ID NO 465/466). The letters cannot carry this.
# notes: as for B3
# B7: C5V1-siSOD1m (VHH)
# VHH: B1 VHH with T27A
# modifications: conjugated to the siSOD1m siRNA duplex through a linker; site and tag not given for this conjugate ; VHH conjugated through a C-terminal tag and a stable click linker to the 3' end of the sense strand of the siSOD1m siRNA duplex (SEQ ID NO 465/466). The letters cannot carry this.
# notes: as for B3
# B8: B8-siSOD1m (VHH)
# VHH: EVQLVESGGGVVQPGGSLRLSCAASGEIFSINFMRWYRQAPGKQREWVAGFTRDGSTNYPDSAKGRFTISRDNAKNTVYLQIDSLKPEDTAVYYCYMLDTWGQGTQVTVSS
# modifications: conjugated to the siSOD1m siRNA duplex through a linker; site and tag not given for this conjugate ; VHH conjugated through a C-terminal tag and a stable click linker to the 3' end of the sense strand of the siSOD1m siRNA duplex (SEQ ID NO 465/466). The letters cannot carry this.
# notes: as for B3
# B9: B8h1-siSOD1m (VHH)
# VHH: B8 VHH with Q44G, R45L, A63V, I82M, D83N, K86R
# modifications: chain 1 pos 125: Gln of the LQR Q-tag carrying the transglutaminase-installed azido linker clicked to the 3' end of the sense strand of the chemically modified siSOD1m duplex (SEQ ID NOs 465/466), written Q
# notes: Member of the group m173
# B10: VHH B-siGFPst1 bioconjugate (VHH)
# VHH: B8 VHH
# modifications: siGFPst1 siRNA linked to the Gln of the C-terminal Q-tag
# notes: not shown: C-terminal tag with His tag and Q-tag
# Molecular target: T1, murine TfR expressed by murine neuroblastoma Neuro-2a cells (mouse, UniProt Q62351 1-763)
# T1 construct: whole, on cells; also called mTfR (N2a cells)
# T1 sequence (Q62351 whole entry): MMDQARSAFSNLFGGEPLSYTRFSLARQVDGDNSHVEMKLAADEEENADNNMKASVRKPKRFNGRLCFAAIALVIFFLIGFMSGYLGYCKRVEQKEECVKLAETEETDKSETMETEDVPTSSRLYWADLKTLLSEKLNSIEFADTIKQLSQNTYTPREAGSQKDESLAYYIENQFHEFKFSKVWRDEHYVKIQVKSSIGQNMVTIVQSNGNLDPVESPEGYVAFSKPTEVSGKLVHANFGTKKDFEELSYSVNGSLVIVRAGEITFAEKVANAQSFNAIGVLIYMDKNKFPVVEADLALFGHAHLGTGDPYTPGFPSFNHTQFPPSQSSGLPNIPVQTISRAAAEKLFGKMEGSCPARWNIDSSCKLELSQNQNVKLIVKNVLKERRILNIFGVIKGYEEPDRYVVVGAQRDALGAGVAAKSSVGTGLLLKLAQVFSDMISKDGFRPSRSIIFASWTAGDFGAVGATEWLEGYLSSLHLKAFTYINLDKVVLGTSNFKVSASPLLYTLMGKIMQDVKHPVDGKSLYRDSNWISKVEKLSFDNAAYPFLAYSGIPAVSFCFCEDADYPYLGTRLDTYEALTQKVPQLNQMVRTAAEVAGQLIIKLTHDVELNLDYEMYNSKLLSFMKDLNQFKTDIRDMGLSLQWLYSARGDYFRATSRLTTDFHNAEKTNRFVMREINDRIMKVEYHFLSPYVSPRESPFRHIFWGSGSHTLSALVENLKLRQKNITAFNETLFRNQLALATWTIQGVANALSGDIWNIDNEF
# Assay: competition with the fluorescent reference VHH on Neuro-2a cells as in FIG. 25; Ki/app on mTfR
# Protocol: The binding of VHH-Oligo and VHH-hFc-Oligo conjugates to mTfR was evaluated using a competition assay on living cells expressing the receptor of interest, namely murine neuroblastoma Neuro-2a cells (N2a). N2a cells were grown in Dulbecco's Modified Eagle Medium (DMEM) GlutaMAX supplemented with 10% v/v FBS in 5% CO₂ at 37° C. Cells were seeded two days before experiments in 96-well plates at a density of 50.000 cells/well. […] Resuspended cells were transferred in a 96-deepwell plate (V-bottom) containing 1% fetal bovine serum (FBS)/0.02% sodium azide in phosphate-buffered saline (PBS) and then centrifuged for 5 min at 2000 rpm at 4° C. After removing the supernatant, 5 mM EDTA in D-PBS and 4% paraformaldehyde (PFA) (v/v 1:1) were added into wells to fix cells for 15 min at room temperature. PFA was removed by centrifugation (5 min, 3000 rpm, 4° C.) and cells were resuspended with 5 mM EDTA in D-PBS. Then the cellular A680-associated fluorescence signal was quantified using an Attune™ NxT flow cytometer (Thermo Fisher Scientific) equipped with Attune™ NxT v3.1.2. Experimental data (experimental triplicates) were fitted with GraphPad Prism® software using a nonlinear fit to determine the apparent Ki inhibition constants.
row,Ki [nM],Binder
1,161,B1
2,137,B2
3,2630,B3
4,1070,B4
5,10100,B5
6,512,B6
7,224,B7
8,48.8,B8
9,76.1,B9

# Molecular target: T2, human transferrin receptor (hTfR) fused to EGFP, on CHO cells (human, UniProt P02786 1-760)
# T2 construct: whole, on cells; also called human TfR; CHO-hTfR-EGFP; not shown: EGFP from pEGFP-C1 vector, fused to the N-terminal (intracellular) end of hTfR
# T2 sequence (P02786 whole entry, the tested form may be a part): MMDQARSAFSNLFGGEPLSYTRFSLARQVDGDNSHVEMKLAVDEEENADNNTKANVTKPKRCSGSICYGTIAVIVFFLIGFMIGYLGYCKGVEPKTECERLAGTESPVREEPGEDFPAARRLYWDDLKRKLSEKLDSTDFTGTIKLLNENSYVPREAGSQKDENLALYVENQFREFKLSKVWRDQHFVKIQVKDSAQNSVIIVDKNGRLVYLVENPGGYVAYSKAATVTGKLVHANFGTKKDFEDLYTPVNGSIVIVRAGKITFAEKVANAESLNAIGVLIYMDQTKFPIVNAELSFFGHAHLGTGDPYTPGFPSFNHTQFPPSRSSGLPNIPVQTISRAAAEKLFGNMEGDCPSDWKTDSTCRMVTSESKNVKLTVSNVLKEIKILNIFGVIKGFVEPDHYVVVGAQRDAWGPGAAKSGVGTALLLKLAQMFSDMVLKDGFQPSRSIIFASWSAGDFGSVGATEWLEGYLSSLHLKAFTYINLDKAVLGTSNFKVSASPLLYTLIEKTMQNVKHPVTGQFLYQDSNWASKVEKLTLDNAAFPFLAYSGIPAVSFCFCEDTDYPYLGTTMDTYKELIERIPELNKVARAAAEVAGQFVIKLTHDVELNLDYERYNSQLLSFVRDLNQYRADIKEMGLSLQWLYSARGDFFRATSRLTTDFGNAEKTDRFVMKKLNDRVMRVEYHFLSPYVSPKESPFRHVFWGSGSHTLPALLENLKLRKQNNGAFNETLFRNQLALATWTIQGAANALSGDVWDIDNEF
# Assay: flow cytometry on CHO-hTfR-EGFP cells, 1 hr at 4 C, anti-6His + Alexa647 anti-mouse; ratio to background fluorescence
# Protocol: FIGS. 15A-15H: In vitro gene silencing activity of VHH-siGFPst1 bioconjugates. […] CHO-hTfR-EGFP cells were incubated 1 hr at 4° C. with various concentrations of the indicated compounds. Detection of VHHs was performed using a primary mouse anti-6His (1/1000) and an Alexa647-conjugated anti-mouse secondary antibody (1/400). Measurements of cell-surface signal associated to VHH were performed using flow cytometry. The results are expressed as the ratio of Alexa647-associated fluorescence intensity of test compounds to that of background fluorescence. […] The total fluorescence associated to the EGFP protein was then quantified using flow cytometry and rationalized to that of untreated (control) cells (set at 100%) *** p≤0.001. […] The total fluorescence associated with the EGFP protein was then quantified using flow cytometry and rationalized to that of untreated (control) cells (set at 100%). […] CHO-hTfR-EGFP cells were incubated with the indicated compounds at 1 μM during 120 hrs at 37° C. Data were processed and analyzed as described in (B). *** p≤0.001 vs. untreated cells. […] The total fluorescence associated with the EGFP protein was then quantified using flow cytometry and rationalized to that of untreated (control) cells (set at 100%).
row,EC50 (read off the curve) [nM],Binder
1,~3,B10
